Data reported in patent publication US20250002610A1 (Genmab, published 2025).

B1: BisG1-FAPα-FEAL/b12-FEAR (bispecific antibody, human IgG1, kappa)
heavy 1: EVQLLESGGGLVQPGGSPRLSCEASGFTFSSYALSWVRQAPGKGLEWVSAISGSGGGRYYADSVKGRFTISRDNSKNTLFLQMNSLRAEDTAVYYCAKEGYSSSGTYWDHWGQGTLVTVSSASTKGPSVFPLAPSSKSTSGGTAALGCLVKDYFPEPVTVSWNSGALTSGVHTFPAVLQSSGLYSLSSVVTVPSSSLGTQTYICNVNHKPSNTKVDKRVEPKSCDKTHTCPPCPAPEFEGGPSVFLFPPKPKDTLMISRTPEVTCVVVAVSHEDPEVKFNWYVDGVEVHNAKTKPREEQYNSTYRVVSVLTVLHQDWLNGKEYKCKVSNKALPAPIEKTISKAKGQPREPQVYTLPPSREEMTKNQVSLTCLVKGFYPSDIAVEWESNGQPENNYKTTPPVLDSDGSFLLYSKLTVDKSRWQQGNVFSCSVMHEALHNHYTQKSLSLSPG
light 1: AIQMTQSPSSVSASVGDRVTITCRASQGVSSWLAWYQQKPGRAPKLLIYVASTLQSGVPSRFSGSGSGTDFTLTINSLQPEDFATYYCQQANSFPPTFGQGTRLEMKRTVAAPSVFIFPPSDEQLKSGTASVVCLLNNFYPREAKVQWKVDNALQSGNSQESVTEQDSKDSTYSLSSTLTLSKADYEKHKVYACEVTHQGLSSPVTKSFNRGEC
heavy 2: QVQLVQSGAEVKKPGASVKVSCQASGYRFSNFVIHWVRQAPGQRFEWMGWINPYNGNKEFSAKFQDRVTFTADTSANTAYMELRSLRSADTAVYYCARVGPYSWDDSPQDNYYMDVWGKGTTVIVSSASTKGPSVFPLAPSSKSTSGGTAALGCLVKDYFPEPVTVSWNSGALTSGVHTFPAVLQSSGLYSLSSVVTVPSSSLGTQTYICNVNHKPSNTKVDKRVEPKSCDKTHTCPPCPAPEFEGGPSVFLFPPKPKDTLMISRTPEVTCVVVAVSHEDPEVKFNWYVDGVEVHNAKTKPREEQYNSTYRVVSVLTVLHQDWLNGKEYKCKVSNKALPAPIEKTISKAKGQPREPQVYTLPPSREEMTKNQVSLTCLVKGFYPSDIAVEWESNGQPENNYKTTPPVLDSDGSFFLYSRLTVDKSRWQQGNVFSCSVMHEALHNHYTQKSLSLSPG
light 2: EIVLTQSPGTLSLSPGERATFSCRSSHSIRSRRVAWYQHKPGQAPRLVIHGVSNRASGISDRFSGSGSGTDFTLTITRVEPEDFALYYCQVYGASSYTFGQGTKLERKRTVAAPSVFIFPPSDEQLKSGTASVVCLLNNFYPREAKVQWKVDNALQSGNSQESVTEQDSKDSTYSLSSTLTLSKADYEKHKVYACEVTHQGLSSPVTKSFNRGEC
notes: Fab-arm exchange of IgG1-FAPα-FEAL and IgG1-b12-FEAR
B2: IgG1-FAPα-FERL (antibody)
heavy: EVQLLESGGGLVQPGGSPRLSCEASGFTFSSYALSWVRQAPGKGLEWVSAISGSGGGRYYADSVKGRFTISRDNSKNTLFLQMNSLRAEDTAVYYCAKEGYSSSGTYWDHWGQGTLVTVSSASTKGPSVFPLAPSSKSTSGGTAALGCLVKDYFPEPVTVSWNSGALTSGVHTFPAVLQSSGLYSLSSVVTVPSSSLGTQTYICNVNHKPSNTKVDKRVEPKSCDKTHTCPPCPAPEFERGPSVFLFPPKPKDTLMISRTPEVTCVVVDVSHEDPEVKFNWYVDGVEVHNAKTKPREEQYNSTYRVVSVLTVLHQDWLNGKEYKCKVSNKALPAPIEKTISKAKGQPREPQVYTLPPSREEMTKNQVSLTCLVKGFYPSDIAVEWESNGQPENNYKTTPPVLDSDGSFLLYSKLTVDKSRWQQGNVFSCSVMHEALHNHYTQKSLSLSPG
light: AIQMTQSPSSVSASVGDRVTITCRASQGVSSWLAWYQQKPGRAPKLLIYVASTLQSGVPSRFSGSGSGTDFTLTINSLQPEDFATYYCQQANSFPPTFGQGTRLEMKRTVAAPSVFIFPPSDEQLKSGTASVVCLLNNFYPREAKVQWKVDNALQSGNSQESVTEQDSKDSTYSLSSTLTLSKADYEKHKVYACEVTHQGLSSPVTKSFNRGEC
notes: Bivalent monoclonal IgG1 kappa
B3: IgG1-DR4-FERR (antibody, V domains shown)
VH: QVQLQESGPGLVKPSGTLSLTCAVSGGSISSYSWWSWIRQPPGKGLEWIGELYHSGSTNYNPSLKSRVTISVDKSKNQFSLKLRSVTAADTAVYYCVRGVATIDYWGQGTLVTVSS
VL: QSALTQPPSASGSPGQSVTISCTGTSSDVGGYNFVSWYQQDPGKAPKLLIYEVTKRPSGVPDRFSGSKSGNTASLTVSGLQAEDEADYYCSSYAGSNNVMFGGGTKLTVLG
notes: Bivalent monoclonal IgG1 lambda
B4: BisG1-b12-FERL/DR4-FERR (bispecific antibody, human IgG1, kappa, lambda)
heavy 1: QVQLVQSGAEVKKPGASVKVSCQASGYRFSNFVIHWVRQAPGQRFEWMGWINPYNGNKEFSAKFQDRVTFTADTSANTAYMELRSLRSADTAVYYCARVGPYSWDDSPQDNYYMDVWGKGTTVIVSSASTKGPSVFPLAPSSKSTSGGTAALGCLVKDYFPEPVTVSWNSGALTSGVHTFPAVLQSSGLYSLSSVVTVPSSSLGTQTYICNVNHKPSNTKVDKRVEPKSCDKTHTCPPCPAPEFERGPSVFLFPPKPKDTLMISRTPEVTCVVVDVSHEDPEVKFNWYVDGVEVHNAKTKPREEQYNSTYRVVSVLTVLHQDWLNGKEYKCKVSNKALPAPIEKTISKAKGQPREPQVYTLPPSREEMTKNQVSLTCLVKGFYPSDIAVEWESNGQPENNYKTTPPVLDSDGSFLLYSKLTVDKSRWQQGNVFSCSVMHEALHNHYTQKSLSLSPG
light 1: EIVLTQSPGTLSLSPGERATFSCRSSHSIRSRRVAWYQHKPGQAPRLVIHGVSNRASGISDRFSGSGSGTDFTLTITRVEPEDFALYYCQVYGASSYTFGQGTKLERKRTVAAPSVFIFPPSDEQLKSGTASVVCLLNNFYPREAKVQWKVDNALQSGNSQESVTEQDSKDSTYSLSSTLTLSKADYEKHKVYACEVTHQGLSSPVTKSFNRGEC
heavy 2: QVQLQESGPGLVKPSGTLSLTCAVSGGSISSYSWWSWIRQPPGKGLEWIGELYHSGSTNYNPSLKSRVTISVDKSKNQFSLKLRSVTAADTAVYYCVRGVATIDYWGQGTLVTVSSASTKGPSVFPLAPSSKSTSGGTAALGCLVKDYFPEPVTVSWNSGALTSGVHTFPAVLQSSGLYSLSSVVTVPSSSLGTQTYICNVNHKPSNTKVDKRVEPKSCDKTHTCPPCPAPEFERGPSVFLFPPKPKDTLMISRTPEVTCVVVDVSHEDPEVKFNWYVDGVEVHNAKTKPREEQYNSTYRVVSVLTVLHQDWLNGKEYKCKVSNKALPAPIEKTISKAKGQPREPQVYTLPPSREEMTKNQVSLTCLVKGFYPSDIAVEWESNGQPENNYKTTPPVLDSDGSFFLYSRLTVDKSRWQQGNVFSCSVMHEALHNHYTQKSLSLSPG
light 2: QSALTQPPSASGSPGQSVTISCTGTSSDVGGYNFVSWYQQDPGKAPKLLIYEVTKRPSGVPDRFSGSKSGNTASLTVSGLQAEDEADYYCSSYAGSNNVMFGGGTKLTVLGQPKAAPSVTLFPPSSEELQANKATLVCLISDFYPGAVTVAWKADSSPVKAGVETTTPSKQSNNKYAASSYLSLTPEQWKSHRSYSCQVTHEGSTVEKTVAPTECS
notes: Fab-arm exchange of IgG1-b12-FERL and IgG1-DR4-FERR; also called bsIgG1-ctrl-FERLxDR4-FERR

Legend:
[1] = molecular target: T1, human FAPα (Fibroblast activation protein alpha), cell surface expressed (human, UniProt Q12884 1-760); experiment: flow cytometry, Expi293F cells expressing human FAPα, n = 2
T1 construct: Endogenous on human lung fibroblasts and CAFs
T1 sequence: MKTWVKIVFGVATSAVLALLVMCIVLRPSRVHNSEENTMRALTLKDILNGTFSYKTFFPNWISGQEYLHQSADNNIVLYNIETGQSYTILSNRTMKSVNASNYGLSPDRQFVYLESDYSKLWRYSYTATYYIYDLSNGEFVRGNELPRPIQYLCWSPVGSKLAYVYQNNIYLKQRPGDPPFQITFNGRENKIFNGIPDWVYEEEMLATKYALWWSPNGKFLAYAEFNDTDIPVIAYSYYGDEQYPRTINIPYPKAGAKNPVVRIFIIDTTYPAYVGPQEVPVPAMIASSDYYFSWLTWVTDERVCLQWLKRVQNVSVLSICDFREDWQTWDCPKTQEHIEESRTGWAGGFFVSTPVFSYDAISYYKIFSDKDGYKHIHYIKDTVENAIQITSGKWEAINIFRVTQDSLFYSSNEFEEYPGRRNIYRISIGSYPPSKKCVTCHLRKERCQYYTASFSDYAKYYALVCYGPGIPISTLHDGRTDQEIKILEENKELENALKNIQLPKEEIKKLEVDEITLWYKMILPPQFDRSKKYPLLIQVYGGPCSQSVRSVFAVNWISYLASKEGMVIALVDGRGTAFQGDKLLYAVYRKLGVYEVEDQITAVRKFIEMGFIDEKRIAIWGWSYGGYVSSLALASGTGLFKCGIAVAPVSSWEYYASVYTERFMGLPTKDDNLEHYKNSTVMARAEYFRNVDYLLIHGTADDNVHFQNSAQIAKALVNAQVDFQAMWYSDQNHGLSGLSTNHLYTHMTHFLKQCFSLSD
Description: Binding of BisG1-FAPα-FERL/DR4-FERR, BisG1-FAPα-FEAL/b12-FEAR and IgG1-FAPα-FERL to FAPα of species commonly used for nonclinical toxicology studies was assessed by flow cytometry using Expi293F cells transiently expressing FAPα from different animal species. IgG1-b12 was included as negative control.
Expi293F cells expressing recombinant FAPα from various species (human, cynomolgus monkey, dog, pig, rat or mouse) were seeded (20,000 cells/well) in 96-Well round bottom plates (Greiner Bio-one, Cat #650101). Antibody dilutions were prepared using FACS buffer, consisting of PBS (Capricorn Scientific, Cat #PBS-10XA, diluted to 1×PBS in distilled water)+1% BSA (Roche, Cat #10735086001)+0.02% Sodium Azide (Bio-World, Cat #41920044-3). Plates were centrifuged, supernatant was removed, and cells were resuspended in 100 μL of antibody dilutions (concentration range 30-0.00017 μg/mL with three-fold serial dilutions using FACS buffer) of BisG1-FAPα-FERL/DR4-FERR, BisG1-FAPα-FEAL/b12-FEAR, IgG1-FAPα-FERL and IgG1-b12 and incubated for 30 min at 4° C. […] After 30 min incubation at 4° C., cells were washed with FACS buffer and resuspended in FACS buffer supplemented with TO-PRO-3 Iodide viability marker (Invitrogen, Cat #T3605, diluted 1:4,000). Antibody binding to viable cells (gMFI of PE on TO-PRO-3 negative cells) was analyzed by flow cytometry on a FACS Celesta and FACS_Diva software (first two experiments) or iQue® 3 and FlowJo software (last experiment). gMFI was determined and visualized using GraphPad Prism. Binding curves were analyzed using nonlinear regression analysis. The concentration (pg/mL) at which 50% of the maximal effect was observed (EC₅₀) was derived from the fitted curves.

[2] = molecular target: T2, human DR4 (Death Receptor 4), cell surface expressed on human tumor cell lines (human, UniProt O00220 24-468); experiment: flow cytometry, MDA-MB-231 cells, average ± SEM
T2 construct: also called TNFRSF10A; TRAIL-R1
T2 sequence: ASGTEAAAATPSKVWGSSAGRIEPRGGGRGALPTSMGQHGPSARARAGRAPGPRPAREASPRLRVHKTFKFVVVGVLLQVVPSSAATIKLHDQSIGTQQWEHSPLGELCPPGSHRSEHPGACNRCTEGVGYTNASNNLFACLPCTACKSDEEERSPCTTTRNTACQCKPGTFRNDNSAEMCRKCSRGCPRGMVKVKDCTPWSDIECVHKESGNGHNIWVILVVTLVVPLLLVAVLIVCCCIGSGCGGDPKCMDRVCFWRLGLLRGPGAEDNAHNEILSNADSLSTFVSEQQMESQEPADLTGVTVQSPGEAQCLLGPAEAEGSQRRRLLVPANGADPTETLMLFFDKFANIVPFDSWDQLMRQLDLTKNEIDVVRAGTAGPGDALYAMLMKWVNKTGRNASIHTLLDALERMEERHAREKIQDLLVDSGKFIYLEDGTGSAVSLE

[3] = molecular target: T2, human DR4 (Death Receptor 4), cell …; experiment: flow cytometry, HCT-116 cells, n = 1

| Binder | EC50 [1] [µg/mL] | EC50 [2] [µg/mL] | EC50 [3] [µg/mL] |
| --- | --- | --- | --- |
| B1 | 0.16 |  |  |
| B2 | 0.12 |  |  |
| B3 |  | 0.32 | 0.22 |
| B4 |  | 1.02 | 0.51 |
